# Laboratory results from article PMC6864843 (2019).
# T1: Recombinant AAV1 particles (Adeno-Associated Virus serotype 1 capsid) (Adeno-associated virus 1, UniProt Q9WBP8 1-736)
# T1 chain 1: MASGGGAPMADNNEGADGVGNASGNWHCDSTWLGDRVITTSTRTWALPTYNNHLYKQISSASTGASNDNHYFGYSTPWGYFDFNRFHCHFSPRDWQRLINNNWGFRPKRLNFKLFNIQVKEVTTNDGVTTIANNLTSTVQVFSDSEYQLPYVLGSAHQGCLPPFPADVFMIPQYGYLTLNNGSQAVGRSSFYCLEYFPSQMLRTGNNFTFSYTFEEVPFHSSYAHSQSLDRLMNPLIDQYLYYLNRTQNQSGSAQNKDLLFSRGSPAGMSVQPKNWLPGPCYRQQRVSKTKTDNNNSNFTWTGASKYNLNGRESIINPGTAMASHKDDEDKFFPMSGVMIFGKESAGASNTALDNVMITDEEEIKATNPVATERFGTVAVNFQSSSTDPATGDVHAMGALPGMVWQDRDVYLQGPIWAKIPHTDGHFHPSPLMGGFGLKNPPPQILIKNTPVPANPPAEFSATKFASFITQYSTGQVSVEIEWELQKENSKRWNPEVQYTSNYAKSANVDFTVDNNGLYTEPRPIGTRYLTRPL
# T1 chain 2: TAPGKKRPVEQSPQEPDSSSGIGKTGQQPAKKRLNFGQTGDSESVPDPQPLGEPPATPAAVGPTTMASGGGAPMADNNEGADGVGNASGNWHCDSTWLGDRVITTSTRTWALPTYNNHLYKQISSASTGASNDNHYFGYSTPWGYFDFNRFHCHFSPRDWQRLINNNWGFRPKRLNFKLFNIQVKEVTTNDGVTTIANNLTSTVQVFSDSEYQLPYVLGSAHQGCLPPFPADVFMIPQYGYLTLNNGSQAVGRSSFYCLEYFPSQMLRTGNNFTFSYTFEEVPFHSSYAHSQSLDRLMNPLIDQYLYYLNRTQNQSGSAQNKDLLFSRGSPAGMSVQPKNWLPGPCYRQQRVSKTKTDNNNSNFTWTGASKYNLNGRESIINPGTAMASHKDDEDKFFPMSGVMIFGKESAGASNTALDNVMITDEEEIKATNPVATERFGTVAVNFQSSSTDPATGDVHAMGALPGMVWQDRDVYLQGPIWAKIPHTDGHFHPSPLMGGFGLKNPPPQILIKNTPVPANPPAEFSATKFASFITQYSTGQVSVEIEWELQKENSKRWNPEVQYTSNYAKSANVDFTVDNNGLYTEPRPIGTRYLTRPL
# T1 chain 3: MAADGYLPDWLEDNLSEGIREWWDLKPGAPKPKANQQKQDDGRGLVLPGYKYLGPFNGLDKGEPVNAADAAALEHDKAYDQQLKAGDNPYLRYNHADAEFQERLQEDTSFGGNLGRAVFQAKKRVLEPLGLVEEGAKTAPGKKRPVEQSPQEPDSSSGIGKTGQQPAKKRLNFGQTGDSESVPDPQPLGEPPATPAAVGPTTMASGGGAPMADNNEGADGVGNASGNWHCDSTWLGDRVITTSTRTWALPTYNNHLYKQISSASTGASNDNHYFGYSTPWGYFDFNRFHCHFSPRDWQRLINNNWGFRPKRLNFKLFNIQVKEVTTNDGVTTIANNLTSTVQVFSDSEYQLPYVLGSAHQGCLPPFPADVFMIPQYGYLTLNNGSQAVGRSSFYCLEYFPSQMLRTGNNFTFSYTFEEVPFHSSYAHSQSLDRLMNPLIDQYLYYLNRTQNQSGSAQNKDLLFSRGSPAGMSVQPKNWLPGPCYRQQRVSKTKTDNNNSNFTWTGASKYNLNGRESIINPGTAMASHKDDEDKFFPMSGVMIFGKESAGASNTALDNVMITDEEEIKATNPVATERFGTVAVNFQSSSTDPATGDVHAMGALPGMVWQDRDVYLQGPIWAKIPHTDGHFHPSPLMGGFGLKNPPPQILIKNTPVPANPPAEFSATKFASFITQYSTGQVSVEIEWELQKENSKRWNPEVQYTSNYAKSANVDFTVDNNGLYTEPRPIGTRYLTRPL
# B1: Soluble recombinant AAVR (analyte of the BIAcore assay) (domain or fragment)
# chain: SAGESVQITLPKNEVQLNAYVLQEPPKGETYTYDWQLITHPRDYSGEMEGKHSQILKLSKLTPGLYEFKVIVEGQNAHGEGYVNVTVKPEPRKNRPPIAIVSPQFQEISLPTTSTVIDGSQSTDDDKIVQYHWEELKGPLREEKISEDTAILKLSKLVPGNYTFSLTVVDSDGATNSTTANLTVNKAVDYPPVANAGPNQVITLPQNSITLFGNQSTDDHGITSYEWSLSPSSKGKVVEMQGVRTPTLQLSAMQEGDYTYQLTVTDTIGQQATAQVTVIVQPENNKPPQADAGPDKELTLPVDSTTLDGSKSSDDQKIISYLWEKTQGPDGVQLENANSSVATVTGLQVGTYVFTLTVKDERNLQSQSSVNVIVKEEINKPPIAKITGNVVITLPTSTAELDGSKSSDDKGIVSYLWTRDEGSPAAGEVLNHSDHHPILFLSNLVEGTYTFHLKVTDAKGESDTDRTTVEVKPD
# Columns and labels:
# [1] = biological target: Recombinant AAV2 particles (Adeno-Associated Virus serotype 2 capsid) (Adeno-associated virus 2); assay: ELISA; sandwich 'VIRELISA': 10 μg AAVR-His coated per well, AAV2 sample (1.0 × 10^8 v.g. in Table 1) 1 h at RT, blocked with BSA, AAVR-SBP-His probe 1 h in PBST, HRP-streptavidin, ABTS, read at 450 nm; probe concentration, SAV-HRP dilution and ABTS time varied in Table 1
# Recombinant AAV2 particles (Adeno-Associated Virus serotype 2 capsid) (Adeno-associated virus 2), sequence (O56652 whole entry, chain 1 of 3): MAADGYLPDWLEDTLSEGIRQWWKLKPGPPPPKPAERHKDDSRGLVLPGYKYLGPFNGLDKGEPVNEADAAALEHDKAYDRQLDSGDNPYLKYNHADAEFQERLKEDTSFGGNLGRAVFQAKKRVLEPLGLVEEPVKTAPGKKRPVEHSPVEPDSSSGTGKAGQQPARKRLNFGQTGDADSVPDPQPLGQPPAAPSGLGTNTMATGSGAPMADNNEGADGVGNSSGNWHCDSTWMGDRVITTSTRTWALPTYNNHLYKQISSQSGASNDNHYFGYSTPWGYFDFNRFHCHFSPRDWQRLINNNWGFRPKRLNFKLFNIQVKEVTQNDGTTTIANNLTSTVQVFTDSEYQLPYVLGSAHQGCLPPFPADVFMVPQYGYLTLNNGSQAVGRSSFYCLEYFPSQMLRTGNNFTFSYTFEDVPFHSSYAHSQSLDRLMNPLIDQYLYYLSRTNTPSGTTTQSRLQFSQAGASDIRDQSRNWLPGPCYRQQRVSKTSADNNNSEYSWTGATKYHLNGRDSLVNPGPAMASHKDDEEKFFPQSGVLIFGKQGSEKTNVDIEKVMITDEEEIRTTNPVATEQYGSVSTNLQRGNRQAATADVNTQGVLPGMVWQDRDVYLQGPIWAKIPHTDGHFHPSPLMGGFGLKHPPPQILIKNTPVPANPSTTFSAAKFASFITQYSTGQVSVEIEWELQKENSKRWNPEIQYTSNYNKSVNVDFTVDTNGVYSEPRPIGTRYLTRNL
# Recombinant AAV2 particles (Adeno-Associated Virus serotype 2 capsid) (Adeno-associated virus 2), sequence (P03135 139-735, tags left off, chain 2 of 3, further chain): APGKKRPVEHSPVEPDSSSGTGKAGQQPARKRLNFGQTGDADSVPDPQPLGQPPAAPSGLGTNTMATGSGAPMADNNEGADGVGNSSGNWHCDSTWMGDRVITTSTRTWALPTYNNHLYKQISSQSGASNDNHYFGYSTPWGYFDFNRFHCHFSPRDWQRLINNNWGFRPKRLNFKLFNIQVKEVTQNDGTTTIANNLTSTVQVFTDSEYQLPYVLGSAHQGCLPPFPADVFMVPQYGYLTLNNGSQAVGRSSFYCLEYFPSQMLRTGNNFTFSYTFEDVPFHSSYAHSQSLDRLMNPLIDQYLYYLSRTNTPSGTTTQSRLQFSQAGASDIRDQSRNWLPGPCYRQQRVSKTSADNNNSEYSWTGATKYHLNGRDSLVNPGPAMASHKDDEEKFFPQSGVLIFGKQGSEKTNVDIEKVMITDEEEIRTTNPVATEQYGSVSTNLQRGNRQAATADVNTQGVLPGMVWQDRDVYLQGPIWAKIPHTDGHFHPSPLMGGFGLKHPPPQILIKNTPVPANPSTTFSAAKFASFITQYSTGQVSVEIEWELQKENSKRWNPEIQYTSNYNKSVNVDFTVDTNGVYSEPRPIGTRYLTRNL
# Recombinant AAV2 particles (Adeno-Associated Virus serotype 2 capsid) (Adeno-associated virus 2), sequence (P03135 203-735 limits assumed, chain 3 of 3, further chain): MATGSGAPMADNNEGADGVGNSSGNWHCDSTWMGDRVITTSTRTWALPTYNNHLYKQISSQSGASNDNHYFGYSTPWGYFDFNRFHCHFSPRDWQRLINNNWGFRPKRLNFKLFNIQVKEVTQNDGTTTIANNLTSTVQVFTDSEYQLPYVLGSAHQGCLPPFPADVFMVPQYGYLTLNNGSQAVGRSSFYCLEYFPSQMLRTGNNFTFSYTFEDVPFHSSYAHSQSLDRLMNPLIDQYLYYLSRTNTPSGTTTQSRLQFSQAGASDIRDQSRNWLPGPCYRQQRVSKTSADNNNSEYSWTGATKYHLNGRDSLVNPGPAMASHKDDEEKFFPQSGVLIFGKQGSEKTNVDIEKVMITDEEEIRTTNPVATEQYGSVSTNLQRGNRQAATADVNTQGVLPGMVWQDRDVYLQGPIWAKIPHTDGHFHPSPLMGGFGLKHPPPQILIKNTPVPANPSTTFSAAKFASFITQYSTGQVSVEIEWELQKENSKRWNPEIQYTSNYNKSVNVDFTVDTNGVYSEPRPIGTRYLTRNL
# [2] = biological target: Recombinant AAV1 particles (Adeno-Associated Virus serotype 1 capsid) (Adeno-associated virus 1) (UniProt Q9WBP8); assay: SPR; BIAcore T200; AAV1 particles immobilised on a CM5 chip by amide coupling (in sodium acetate pH 4.5); AAVR flowed at different concentrations, 30 μL/min, 25 °C, 100 mM NaCl in 10 mM HEPES pH 7.4
# [3] = biological target: T1, Recombinant AAV1 particles …; assay: SPR
molecule,measurement,setting,value
AAVR-SBP-His (AAVR PKD domains 1–5 with C-terminal streptavidin binding peptide and 6× His-tag in tandem) (domain or fragment),"absorbance at 450 nm, AAVR-SBP-His 50 μg/mL (absorbance (450 nm))",[1],0.662
same,"absorbance at 450 nm, AAVR-SBP-His 100 μg/mL (absorbance (450 nm))",[1],0.861
same,"absorbance at 450 nm, ABTS incubating time 10 min (absorbance (450 nm))",[1],0.32
same,"absorbance at 450 nm, ABTS incubating time 15 min (absorbance (450 nm))",[1],0.663
same,"absorbance at 450 nm, ABTS incubating time 20 min (absorbance (450 nm))",[1],0.819
same,"absorbance at 450 nm, ABTS incubating time 30 min (absorbance (450 nm))",[1],1.33
same,"absorbance at 450 nm, SAV-HRP dilution 1/1000 (absorbance (450 nm))",[1],0.872
same,"absorbance at 450 nm, SAV-HRP dilution 1/2000 (absorbance (450 nm))",[1],0.798
same,"absorbance at 450 nm, SAV-HRP dilution 1/5000 (absorbance (450 nm))",[1],0.662
Soluble recombinant AAVR (analyte of the BIAcore assay) (domain or fragment),Kd,[2],255 nM
B1,koff,[3],0.00184 s⁻¹
